Assay: soluble on expression in E. coli; label from the status in PepcDB or PDB records

Q: With “MYTFDTTDHKSPCCNFQWYIFRKQGESRIITCELFGVIVSLENRWDWLEFMIDDSLQLTAFRCPKRDKLGMETLLQLGDVAQVTGNWKLSNGAFLNATKIAIHNNPDVECKYWLQQIQKYKSKVCELEIPSDWIRRQQRAHNLKTDAVLSFSAQVSTAAATCWKLWKKHFNQGGKISLQRLWEVIQRENCPKMQELSSCRRNQIVQLLIHLGYLIPLSKEPETYVLLIDDILDKQVMQIFNQNIASKTLSLREVAYRLEEYFHVEEISLERVEESILRLAYKEKVEQV” as the sequence, how does the “soluble on expression in E. coli” value read?
A: Its value is “not soluble”.

Q: With “GSHMAARRGALIVLEGVDGAGKSTQSRKLVEALCAAGHRAELLRFPERSTEIGKLLSSYLQKKSDVEDHSVHLLFSANRWEQVPLIKEKLSQGVTLVVDRYAFSGVAFTGAKENFSLDWCKQPDVGLPKPDLVLFLQLQLADAAKRGRARGELERYENGAFQERALRCFHQLMKDTTLNWKMVDASKSIEAVHEDIRVLSEDAIATATEKPLGELWK” as the sequence, how does the “soluble on expression in E. coli” value read?
A: Its value is “soluble”.

Q: For “MVVGGFGVGKTTLVRSVSEIRPLSTEETMTRAGETVDDISEVRGKSATTVAFDFGRISLDTRNILYLFGAPGQERFWFLWDRLFAGTLGAVVLVDTRRIDDSWYAIDRLERHGTPFIVACNDFGGPAHTPEQIREALDLDPHVPLIDCDARSRESSKRVLITLVEHLKSLYVPRAPELALLEHHHHHH”, which “soluble on expression in E. coli” value is on record?
A: Its value is “not soluble”.

Q: With “GSHSLRYFYTAVSRPGLGEPWFIIVGYVDDMQVLRFSSKEETPRMAPWLEQEEADDWEQQTHIVTIQGQLSERNLMTLVHFYNKSMDDSHTLQWLQDCDVEPDRHLCLWYNQLAYDSEDLPTLSENPSSCTVGNSTVPQISQHLEGHCSDVLQKYLEKGKERLLRSDPPKAHVTRHPRPEGDVTLRCWALGFYPADITLTWQKDGEELTQDVEFVETRPAGDGTFQKWAAVVVPLGKVQSYTCHVDHEGLPEPLTLRWEP” as the sequence, how does the “soluble on expression in E. coli” value read?
A: Its value is “soluble”.

Q: For “MGSDKIHHHHHHMREIEHAKYSRLKNAIYKDASVALLTQHGKEKVVTPILASAIGCEVTLVTGFDTDQLGTFTRDIPRAGTQIEAARKKARIGMELAHLPLGLASEGSFGPDPFTGLFSLNVEMVVWIDDTLGIEVVGVASGRTNFSHLLAANWEQAEAFARAIDFPEHGIVVRPRHEDDSRVRKGIADWESLREAFFWACGEADNGCVFLETDVRAHMNPMRMEIIASATRDLADKLATPCPVCNTPGFQIVERVPGLPCEGCGAPTRDTWADIHRCGRCGHQVALERLEKAAPAGHCDWCNP”, which “soluble on expression in E. coli” value is on record?
A: The value was “not soluble”.

Q: For “VAFTEKQDALVSSSFEAFKANIPQYSVVFYTSILEKAPAAKDLFSFLANGVDPTNPKLTGHAEKLFALVRDSAGQLKASGTVVADAALGSVHAQKAVTDPQFVVVKEALLKTIKAAVGDKWSDELSRAWEVAYDELAAAIKKA”, which “soluble on expression in E. coli” value is on record?
A: Its value is “soluble”.

Q: Which “soluble on expression in E. coli” value does the source give for “MKAEYLQRFGGIARLYGQSALRSFSQAKVCVVGIGGVGSWAAEALARAGINQITLIDMDDICITNTNRQIHAMQGTVGRLKTEVMAERIRAINPDCEVIEVDDFVTADNLAEHIKREFDYVVDAIDSVKAKVALIAFCKRNKIPVIVAGGAGGQMDPTQITVADLAKTIQDPLAAKVRSDLRRLHNFSKNPARKFGVECVFSTEQLSYPDGNGGTCQAKAASDGNMKMDCASGFGAVTPVTATFGLVAASRVLKKIAERGARAEKEAGNEEAGSIGEA” here?
A: Its value is “soluble”.

Q: With “MANAIRLPPEAYPMSIAAQKNDDDRQARALAALAEKPDGIVEAIAAKAEVAPAEILAILPQGAAVSAPADRFDAIWNEMRGWGEILMIVQTGDIVLEVPGHLPEGTESHGWFNIHGDSPIGGHIKKDNCAAITFVDRGFHGRRSCSVWFMNAAGGAMFKIFVRRDENKELLAGQLAKFEELRDGFRGLEHHHHHH” as the sequence, how does the “soluble on expression in E. coli” value read?
A: Its value is “soluble”.

Q: With “MEEMRVIGLLSSGIDSPVAIHLMASRGAEVYPLHFRQDEIKEKKARKLVSRLKEIHGEKVKDLKVVDALKVQGPVFEKLRELKREKWICIFCKYTMYMVAEKYAREVGAEAIVTGDSLGQVASQTLDNLMVISTATNLPIIRPLIALDKEEIVRIAKEIGTFEISIENEPPCPFLPKFPVVRAGFSQFRKILEEIREVLPK” as the sequence, how does the “soluble on expression in E. coli” value read?
A: The value was “soluble”.

Q: Which “soluble on expression in E. coli” value does the source give for “MQARYRDWGIFKYWFRAVEKNAPWVHKIFIITDHQNPKFLNKHSSKIVFVNHEDFIPNEYLPTFNSDAIEIGIQNIPGLSEHFVFFNDDMFINKPVKPIDFFDGNIPKDSGVMGPQFPISNSITHITVNNMEIINKYFLKKKVLRKYFFKFFNWRYGKDNIRTATALPWQVFIGFYDMHIPISFLKSTFDNVWSEVGNLLSQNYQHRFRSQLDYSVWLMRYFQLASGNFFPRRTRFGKYYNLGEQTEEIINDIKTGKHALIVLNDQESINDYPYEKKLVNEVFERRYSRLEHHHHHH” here?
A: Its value is “soluble”.

Q: Which “soluble on expression in E. coli” value does the source give for “LRPEDFTTLLQTADFRLRLLEAIAAATRRVYICALYLENEEAGQEMLDALYRAKQRNPQLDVRVMVDWHRAQRGRIGEDQSHCNASWYREEAARRELDIPIYGVPVQTRELFGVLHLKGFVIDDTVFYSGASLNNVYLHKLDKYRFDRYHLIRSPELADAMAGFMAEQFFNDPAVFRLD” here?
A: The value was “not soluble”.

Q: With “MGSDKIHHHHHHMPSFKTYPLESIGYDEALRKQFRLVDEITRHFKGSEFLSRGDLGVVPGLNRPRYTKRVEEILAAYFHAEAAMLVRGAGTAAIRMALHSYLTAGQTLLVHDAPIYPTTQTSIEMMSLRTIRADFNDLNHQQLPESPDGILVQYTRQKPDDSYDMAKVLAFFKQRYPSVPIVTDDNYAVMKVHKIGVELGASLSCFSTFKLLGPEGIGCIVGDKSAIQKLRSANYSGGSQVQGHEAIDVLRGLTYAPVALAAQANVVTELVERLNGNEIPGISEAYVANAQSKVLLVEFNQPIAEKVLKYTNDLGAAPNPVGAESKYEIAPMFYRVSGTFKKFDPNLLKTTIRINPYRCGADTIMRILAESVEKVMA” as the sequence, how does the “soluble on expression in E. coli” value read?
A: The value was “not soluble”.

Q: For “MFITFEGIDGSGKSTQIQLLAQYLEKRGKKVILKREPGGTETGEKIRKILLEEEVTPKAELFLFLASRNLLVTEIKQYLSEGYAVLLDRYTDSSVAYQGFGRNLGKEIVEELNDFATDGLIPDLTFYIDVDVETALKRKGELNRFEKREFLERVREGYLVLAREHPERIVVLDGKRSIEEIHRDVVREVKRRWKLDV”, which “soluble on expression in E. coli” value is on record?
A: The value was “soluble”.

Q: With “MAHHHHHHMLSKGNVKNLATDEINEMIDNSLKSGDTDEAPYFLQQNNIYWETGHRTYIPFFHFMIHKYTTKIIDDQIRKFTESVKSVHHTPYVFHKDGYFRSYYGDPDINMVFNLKKNTNFIFNSTGTHNSYSLLCNNNTYDKSTHIFDQVLMSAFKLDLKSVLENNV” as the sequence, how does the “soluble on expression in E. coli” value read?
A: Its value is “not soluble”.

Q: With “AHHHHHHGSEAWRGRSQAVVDNLAPRVVDMLVPEGFKPTQEEQLSSYDVEKKELATVYMITLVSGSGEKEEEVEEETPTQTETQTPTETRTETKTPTETTTTTPTETKETPTQTTTTQPARTETQGGICGPGLIVLLAALGVLRRRS” as the sequence, how does the “soluble on expression in E. coli” value read?
A: Its value is “not soluble”.

Q: Which “soluble on expression in E. coli” value does the source give for “MGSDKIHHHHHHMINELKKTKSRSEIKREQILHSAIELFCVQGFPNTSMDEVAKLAGVSKQTVYAHFGSKDDLFVAAIESRCIAHQLTGDLLFDPKHPEVSIMRFSQQFGEMIVSHETMAVFKTCVAQAESHPELPRLFFNAGPKHVLGLLSGFLQLVDKQGGYHFPKPHDSAIRLCLMLFGELKLRLELGLEVEELRLSRDAYIEETAQMFLRAHRV” here?
A: The value was “not soluble”.

Q: Which “soluble on expression in E. coli” value does the source give for “MFYCRSGFEKECAGEIQDKATQLEVFGFPRLKNNTGYVLFECYQEGDADRLIREIKFNELIFARQMFAVAAEVSDLPKDDRISPILDALSDVDGVPCCGDIRIETPDTNEAKELLKFCRKFTVPMRQALRGKKMLTERDSNRIPVLHICFIAPGHCYVGYSYTNNNSQFFMGIPRLKFPADAPSRSTLKLEEAFHVFIPKEEWDDRLASGMWGVDLGACPGGWTYQLVKRSMFVHAIDNGMMAQSLMDTGQVKHHMVDGFKFEPPRKNVTWLICDMVEKPARVAHLMGEWLIKGWAKEALFNLKLPMKGRYDEVLQDIENLKDFLKKNGFQYKLQAKHLYHDREEITVHIQAISNISPH” here?
A: The value was “not soluble”.

Q: Which “soluble on expression in E. coli” value does the source give for “MSLNLPFRAMVSDLDGTLLTPEHLVGDLTIDTLRALEQKGVDIILATGRNHTDVSSILGKIGAERAVMITSNGARVRDLQGNLLYSNSLPEELVLELYKTPFDTSKVCMNSYQDEGWFTNKDIPAMRQFHKESGFDYNVVDFSKHHGRGTEKVFFIGKTPEDLVEVETYLRDKFGDVTTIVYSALACLEVMNKNVSKGDALKHLLESREYELKDCIAFGDGMNDVEMLSWAGKGCIMKDADIRLKMACPELEVIGSNKEESVARYLRTQFGLDYEGHHHHHH” here?
A: The value was “soluble”.

Q: Which “soluble on expression in E. coli” value does the source give for “MTERKLVAERNFEVNGYDIDAMGIVSNIVYIRWFEDLRTDFINQYMPYSDMMNQQISPILMNTEAEYKTPITIHDKPVGRCYLVKASKLRWEFEFEIESEDAVHCIGKQSGTFFDLQKKKVTRLPEVFQTILSLEHHHHHH” here?
A: Its value is “not soluble”.

Q: Which “soluble on expression in E. coli” value does the source give for “PTQSPSEFIAELARCAQPIAQANDLYASVMMAQAIVESGWGASTLSKAPNYNLFGIKGSYNGQSVYMDTWEYLNGKWLVKKEPFRKYPSYMESFQDNAHVLKTTSFQAGVYYYAGAWKSNTSSYRDATAWLTGRYATDPSYNAKLNNVITAYNL” here?
A: The value was “not soluble”.

Q: For “MGSDKIHHHHHHMQGSRFAFGPFVLDPGAGTLLRNDDPVAVGYRGLKLLAALVGRPGEILEKAELMDAAWPGTAVEEGNLTVQIAQLRKLLGPPADGGEWISTVPRVGYRFTGAIEQLDRAKRKPLPLPDKPSIAVLPFVNLSNDPEQEAFADGLTEDLITDLSRAPGLFVIARNSTFAYKGKAMDVRAIAEELGVRYLLEGSARRAAGRVRINAQLVDAKSGEHLWAERFDRGLDDIFAVQDEATAKIVEALLGRLRAPPPRNRPTNLEAYDLCVRARKLIEESPQTAREAHLLLTRAVSLDPEYAEAHRWLAMNHWMGWVHWGEPVDPNRRIALELARKAVAIDPNDAGCRWVLGNLLAYEHSFEESEAEFAKAFELDPNEADAWATLSDIAVLAGRVEEGLEHIRKAFRLNPYPASWYYLTLGEAQYAARDYEAAVETLRREETYRTSSRRFLAASLAQLGRLDEARAEVEMFLIGNPHFTTSYWVWTEPFRDDAMRDHFVDGFRKAGLPD”, which “soluble on expression in E. coli” value is on record?
A: Its value is “not soluble”.

Q: For “MSPTVRTARHDDYDDIVDLTSDVWADRAMADYIPDVFRDWVDDDGPNRKTLVVDVDGHAVGLAQAVILTETEAWFQGMRVDSDHRGKGFGSLLTEHLIEWAADAGASVGRSMVFSWNEAGLGQSLAAGFEAVTSFRWAHPDPADETPEMTVRNDPTNAWRYWQESDGRGVLSGLALDSGESWALSTLTRETLDRLAADQTVLTIGDDGPQGMACRVRTTDADGEQLAEYAVGVWSDVDAARALFTAIAADAATLGVDGTRVLIPETPRHVAQAAYASGNIDECPDFVLEIDGLEELS”, which “soluble on expression in E. coli” value is on record?
A: Its value is “not soluble”.

Q: Which “soluble on expression in E. coli” value does the source give for “MGSDKIHHHHHHMSRESALSRASRYFEAGDFQSDLAHLVTYRSESQNTAPEARMECRRYLEEAMLPRLRALGFDCEIIDNPDPTGGPLLIGERREGEALPTILTYGHGDAVLGQEGRWREGLEPWVLVEEGDRLYGRGTADNKGQHLINIAALEAVLAERGHLGFNTRIVIEMSEEVGSVGLPDVFRAYKDRLTADVLIASDGPRLQPDVPTMFMGSRGGTTFDLVVETHEGAHHSGNWGGLLSDPAMILAHALACITDVRGQIKVPEWRPDSLTENVRMALRDLPVAGGQGPAVNPDWGEEDLTPAERVFGWNSFTVLAMVSGVPEAPVNAISGWARATCQLRYVVGTDPEDVVPALRRHLDAHGFESVEIRCHERGFFAATRLDPDHPWAQFVGESIRRTSGALHVLPNLAGSLPNDSFTDILEVPTIWVPHSYRGCSQHAPNEHVLKSVYHDALRVMAGVFWDLGEQGGPLA” here?
A: The value was “not soluble”.

Q: For “MSLNDLLTRRAVVAGMGVLGLGLLAGCSPARGLEFKYGKNMSNEILGRKFSLKDPQGNVRTLSSFYGSMPMVFFGFTQCPAVCPTTLARAAQIRKLLRGRDRDLFQVVFITLDPERDTPEVLDAYVKAFDPTFTALTGTPEEIAAVAKEFKVFYEKVPAGDTYTISHSSTSYVYDTRGTLRLSLGHSLNAKECAEDLVTLMEIEGHHHHHH”, which “soluble on expression in E. coli” value is on record?
A: Its value is “soluble”.

— the DeepSol protein solubility set
